Results: the supplement of paper PMC10724198

Tested on: Saccharomyces cerevisiae
Assay: protein stability index of tFT-peptide fusion in deletion strain of DOA10 (PSI (0-1 scale)); higher = more stable (slower turnover)
Experimental: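 MPS profiling in S. cerevisiae of two library types built from selected 12-aa C-degron peptides (IN1, IN2, LN1, LN3, VN2, R1-R5, W1-W3, Atg1 and Rpa12 C-termini): saturation mutagenesis libraries and C-terminal +1 capping libraries (13 aa). Each peptide is fused to the C-terminus of a sfGFP-mCherry timer, after a GGGS linker. Cells are FACS-sorted into 8 mCherry/sfGFP bins and sequenced. PSI runs from 0 (unstable) to 1 (stable), measured once in wild type and in the das1Δ or doa10Δ background.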
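Also: PSI per variant is the weighted mean of its sequencing read distribution over the sorted stability bins, counting only variants with over 10 reads summed across bins.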

Sequence | protein stability index
CLTSLPILLFFR | 0.636
CLVFLPILLFFR | 0.416
CLVKLPILLFFR | 0.6
CLVSFPILLFFR | 0.583
CLVSLMILLFFR | 0.398
CLVSLPELLFFR | 0.692
CLVSLPIHLFFR | 0.669
CLVSLPILFFFR | 0.59
CLVSLPILHFFR | 0.667
CLVSLPILLFCR | 0.25
CLVSLPILLFFM | 0.479
CLVSLPILLHFR | 0.655
CLVSLPILLKFR | 0.652
CLVSLPILLSFR | 0.631
CLVSLPILLVFR | 0.527
CLVSLPILPFFR | 0.679
CLVSLPILVFFR | 0.512
CLVSLPILWFFR | 0.61
CLVSLPIMLFFR | 0.607
CLVSLPIPLFFR | 0.643
CLVSLPIVLFFR | 0.581
CLVSLPKLLFFR | 0.662
CLVSLPSLLFFR | 0.667
CLVSSPILLFFR | 0.645

Sequence | protein stability index
CPVSLPILLFFR | 0.602
CSLRVLLPLYFR | 0.622
DLYMCSVGCWFR | 0.697
ELVSLPILLFFR | 0.633
FSLRVLLPLYFR | 0.608
GAYMCSVGCWFR | 0.686
GDYMCSVGCWFR | 0.692
GLIMCSVGCWFR | 0.39
GLLMCSVGCWFR | 0.409
GLMMCSVGCWFR | 0.506
GLPMCSVGCWFR | 0.699
GLWMCSVGCWFR | 0.54
GLYMCAVGCWFR | 0.54
GLYMCCVGCWFR | 0.504
GLYMCSCGCWFR | 0.674
GLYMCSNGCWFR | 0.703
GLYMCSPGCWFR | 0.679
GLYMCSVGAWFR | 0.667
GLYMCSVGCFFR | 0.632
GLYMCSVGCIFR | 0.637
GLYMCSVGCSFR | 0.651
GLYMCSVGCTFR | 0.64
GLYMCSVGCWDR | 0.665
GLYMCSVGCWFY | 0.52

Sequence | protein stability index
GLYMCSVICWFR | 0.314
GLYMCSVLCWFR | 0.369
GLYMCSVSCWFR | 0.446
GLYMISVGCWFR | 0.341
GLYQCSVGCWFR | 0.676
GLYSCSVGCWFR | 0.676
GLYYCSVGCWFR | 0.605
GMYMCSVGCWFR | 0.713
GNYMCSVGCWFR | 0.699
MITLPMCPLLLR | 0.626
MSLRVLLPLYFR | 0.622
QLVSLPILLFFR | 0.647
QSLRVLLPLYFR | 0.659
RCTRLDAIYFRI | 0.674
RILRVLLPLYFR | 0.654
RLTRLDAIYFRI | 0.663
RQLRVLLPLYFR | 0.665
RRLRVLLPLYFR | 0.668
RSLAVLLPLYFR | 0.68
RSLRVALPLYFR | 0.675
RSLRVLLHLYFR | 0.605
RSLRVLLLLYFR | 0.432
RSLRVLLPDYFR | 0.672
RSLRVLLPGYFR | 0.673

Sequence | protein stability index
RSLRVLLPLEFR | 0.679
RSLRVLLPLTFR | 0.671
RSLRVLLPLYFL | 0.516
RSLRVLLPLYFRF | 0.584
RSLRVLLPLYFRH | 0.616
RSLRVLLPLYFRQ | 0.606
RSLRVLLPLYFRV | 0.441
RSLRVLLPLYIR | 0.596
RSLRVLLPLYPR | 0.69
RSLRVLLPLYWR | 0.658
RSLRVLLTLYFR | 0.511
RSLRVLNPLYFR | 0.684
RSLRVLWPLYFR | 0.676
RSLRVQLPLYFR | 0.685
RSLRVSLPLYFR | 0.687
RSLRVTLPLYFR | 0.676
RSPRVLLPLYFR | 0.681
RSRRVLLPLYFR | 0.702
RSSRVLLPLYFR | 0.699
RVCRLDAIYFRI | 0.638
RVIRLDAIYFRI | 0.653
RVLRVLLPLYFR | 0.634
RVQRLDAIYFRI | 0.666
RVTQLDAIYFRI | 0.685

Sequence | protein stability index
RVTRIDAIYFRI | 0.693
RVTRLDAINFRI | 0.729
RVTRLDAIYFCI | 0.435
RVTRLDAIYFPI | 0.731
RVTRLDAIYFRIG | 0.408
RVTRLDAIYFRIP | 0.371
RVTRLDAIYFRIV | 0.114
RVTRLDAIYFRP | 0.697
RVTRLDAIYVRI | 0.635
RVTRLDALYFRI | 0.705
RVTRLDFIYFRI | 0.596
RVTRLDIIYFRI | 0.645
RVTRLDNIYFRI | 0.702
RVTRLDWIYFRI | 0.495
RVTRLGAIYFRI | 0.634
RVTRLQAIYFRI | 0.402
RVTRVDAIYFRI | 0.68
RYLRVLLPLYFR | 0.659
SITLPMCPLLLR | 0.65
SSLRVLLPLYFR | 0.679
VLVSLPILLFFR | 0.56
